Results on 1 molecule are retold here after EP2787008B1 (Samsung Electronics Co., Ltd., dated 2019).

The test concerns the target T1, huAbF46-H4-A1 (IgG2 Fc).
T1 construct: Human IgG2 hinge and constant region, human kappa; also called anti-c-Met antibody; biotinylated anti-c-Met antibody
Kind of test: SPR, Biacore (GE healthcare); format not stated. In general terms: SPR reads the build-up and loss of mass on a sensor chip optically.

As usually defined, the Kd is the free concentration of one partner at which half of the binding sites on the other are occupied at equilibrium, for simple one-to-one binding. For orientation: koff means a measure of how fast the partners let go of each other. A higher koff goes with a short-lived complex. By kon is commonly meant the rate constant with which the complex forms.

T1 sequence (VH, as listed by the source, chain 1 of 2): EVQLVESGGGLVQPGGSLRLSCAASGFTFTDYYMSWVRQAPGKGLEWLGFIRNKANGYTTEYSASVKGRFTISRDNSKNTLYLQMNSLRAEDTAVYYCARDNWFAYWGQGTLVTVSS
T1 sequence (VL, as listed by the source, chain 2 of 2): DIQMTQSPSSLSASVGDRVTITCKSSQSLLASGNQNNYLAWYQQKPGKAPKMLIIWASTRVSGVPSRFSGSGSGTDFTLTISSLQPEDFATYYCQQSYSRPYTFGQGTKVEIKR

B1: EW02 (antibody, human IgG1, V domains shown)
VH: EVQLLESGGGLVQPGGSLRLSCAASGFTFSNYAMSWVRQAPGKGLEWVSSISSSGGNTYYADSVKGRFTISRDNSKNTLYLQMNSLGAEDTAVYYCAKYHSVFDYWGQGTLVTVSS
VL: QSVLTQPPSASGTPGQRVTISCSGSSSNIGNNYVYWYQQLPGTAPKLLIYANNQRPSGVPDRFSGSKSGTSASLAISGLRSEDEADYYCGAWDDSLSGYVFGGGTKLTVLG
notes: also called EW02 antibody
Take B1: binding was characterised by a dissociation constant (Kd) of 38.4 nM, the koff was 0.0032 s⁻¹ and the kon stood at 85000 M⁻¹ s⁻¹.
